In patent US11279770:

How the values were obtained:
[1] = molecular target: human ErbB-2 (HER2) (human) (UniProt P04626); assay: cell-based or functional assay
[2] = molecular target: human ErbB-2 (HER2) (human) (UniProt P04626); assay: FACS on stable K562-HER2 cells; negative control

| MCF-7 IC50 (pM), HRG dependent proliferation [1] | MFI [2] | Substance |
| --- | --- | --- |
| 352 pM | – | trastuzumab + pertuzumab (1:1) |
| – | 276 MFI | Anti-RSV mAb (antibody) |
